Biological target: native human IL-23 receptor on the surface of cultured human cells (K-562, THP-1, Jurkat) and primary human T-cells (human) (UniProt Q5VWK5)
Assay: cell-based or functional assay

Sequence of native human IL-23 receptor on the surface of cultured human cells (K-562, THP-1, Jurkat) and primary human T-cells (human) (Q5VWK5 24-629): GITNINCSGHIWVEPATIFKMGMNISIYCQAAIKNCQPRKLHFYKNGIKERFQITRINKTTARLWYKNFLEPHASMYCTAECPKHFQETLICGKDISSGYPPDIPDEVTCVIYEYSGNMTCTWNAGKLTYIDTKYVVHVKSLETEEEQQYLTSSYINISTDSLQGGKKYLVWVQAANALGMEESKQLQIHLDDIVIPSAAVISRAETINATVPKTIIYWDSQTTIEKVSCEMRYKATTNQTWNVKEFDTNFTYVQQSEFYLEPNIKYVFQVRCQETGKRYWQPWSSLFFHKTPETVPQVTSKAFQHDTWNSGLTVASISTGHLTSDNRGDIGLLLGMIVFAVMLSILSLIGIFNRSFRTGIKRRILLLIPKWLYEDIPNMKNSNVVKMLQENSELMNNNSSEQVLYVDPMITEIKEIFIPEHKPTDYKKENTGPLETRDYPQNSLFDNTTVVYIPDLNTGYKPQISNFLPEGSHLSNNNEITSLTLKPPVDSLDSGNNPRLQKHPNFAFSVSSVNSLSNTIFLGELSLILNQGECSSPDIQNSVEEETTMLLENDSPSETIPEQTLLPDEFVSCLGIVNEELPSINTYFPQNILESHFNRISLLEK

Substance: His6-ABDwt-TolA-AVI (from UniProt P19934 131-421)
- Th-17+ cell expansion (IL-17-producing cells) in PBMC suspensions after 3 days, normalized to IL-23 only = 1 (normalized cell count (IL-23 only = 1)): 0.88
- Th-17+ cell expansion in separated T-cell samples after 3 days, normalized to IL-23 only = 1 (normalized cell count (IL-23 only = 1)): 0.99

Reference: patent EP2922560B1
